Data published in PMC12948240.

How the values were obtained:
immunoblot, HEK293T = conditions: glycan lost; control: FOXK1 WT, PFOS-treated
[1] = PES1 IP, HA-Ub blot, MG132, HEK293T; conditions: glycan lost; control: FOXK1 WT, PFOS-treated
[2] = cycloheximide chase, PES1 immunoblot, HEK293T; conditions: glycan lost; control: FOXK1 WT

B1: forkhead box k1 (FOXK1): FOXK1 T573A (protein)
parent chain: MAEVGEDSGARALLALRSAPCSPVLCAAAAAAAFPATTSPPPPAQPPPGPPALPAEPGPGPVPSTVATATTTAPALVAAAAASVRQSPGPALARLEGREFEFLMRQPSVTIGRNSSQGSVDLSMGLSSFISRRHLQLSFQEPHFYLRCLGKNGVFVDGAFQRRGAPALQLPQQCTFRFPSTAIKIQFTSLYHKEEAPASPLRPLYPQISPLKIHIPEPDLRSLVSPIPSPTGTISVPNSCPASPRGAGSSSYRFVQNVTSDLQLAAEFAAKAASEQQADASGGDSPKDESKPPYSYAQLIVQAISSAQDRQLTLSGIYAHITKHYPYYRTADKGWQNSIRHNLSLNRYFIKVPRSQEEPGKGSFWRIDPASEAKLVEQAFRKRRQRGVSCFRTPFGPLSSRSAPASPTHPGLMSPRSSGLQTPECLSREGSPIPHDPDLGSKLASVPEYRYSQSAPGSPVSAQPVIMAVPPRPSNLVAKPVAYMPASIVTSQQPSGHAIHVVQQAPTVTMVRVVTTSANSANGYILASQGSTGTSHDTAGTAVLDLGNEARGLEEKPTIAFATIPAASRVIQTVASQMAPGVPGHTVTILQPATPVTIGQHHLPVRAVTQNGKHAVPTNSLTGNAYALSSPLQLLAAQASSSTPVVITRVCEVGPEEPAAAVSVAANAAPTPAASTTTSASSSGEPEVKRSRVEEPGGTATTQPTAMAATGPQGPGTGE
For B1, which “other: PES1 protein level” value (immunoblot, HEK293T) is on record?
Its value is “decreases”.

And the “other: PES1 ubiquitination” value [1]?
The value was “increases”.

And the “other: PES1 degradation” value [2]?
The value was “increases”.
